Results reported in publication PMC7100586.

Molecular target: clathrin heavy chain (Sus scrofa)
Assay: cryo-EM structure

clathrin heavy chain (natural protein)
stoichiometry N: 3
